Data set [1] is described as follows: nuclear/cytoplasmic fractionation blot and immunofluorescence. The settings on record: glycan lost; control: control cells (sh-CTRL).
Data set [2] is described as follows: western blot, PANC1 and PaTU8988. The settings on record: glycan lost; control: sh-CTRL.
A further data set is described as follows: western blot. The settings on record: glycan lost; control: untreated. In general terms: Immunoblotting shows a protein as a band on a membrane.
The nature of data set [3]: cycloheximide chase, western blot. The settings on record: glycan lost; control: without BADGP.

B1: ZEB1: OGT knockdown (protein)
parent chain: MKVTNYNTVVETNSDSDDEDKLHIVEEESVTDAADCEGVPEDDLPTDQTVLPGRSSEREGNAKNCWEDDTGKEGQEILGPEAQADEAGCTVKDDECESDAENEQNHDPNVEEFLQQQDTAVIFPEAPEEDQRQGTPEASGHDENGTPDAFSQLLTCPYCDRGYKRFTSLKEHIKYRHEKNEDNFSCSLCSYTFAYRTQLERHMTSHKSGRDQRHVTQSGCNRKFKCTECGKAFKYKHHLKEHLRIHSGEKPYECPNCKKRFSHSGSYSSHISSKKCISLIPVNGRPRTGLKTSQCSSPSLSASPGSPTRPQIRQKIENKPLQEQLSVNQIKTEPVDYEFKPIVVASGINCSTPLQNGVFTGGGPLQATSSPQGMVQAVVLPTVGLVSPISINLSDIQNVLKVAVDGNVIRQVLENNQANLASKEQETINASPIQQGGHSVISAISLPLVDQDGTTKIIINYSLEQPSQLQVVPQNLKKENPVATNSCKSEKLPEDLTVKSEKDKSFEGGVNDSTCLLCDDCPGDINALPELKHYDLKQPTQPPPLPAAEAEKPESSVSSATGDGNLSPSQPPLKNLLSLLKAYYALNAQPSAEELSKIADSVNLPLDVVKKWFEKMQAGQISVQSSEPSSPEPGKVNIPAKNNDQPQSANANEPQDSTVNLQSPLKMTNSPVLPVGSTTNGSRSSTPSPSPLNLSSSRNTQGYLYTAEGAQEEPQVEPLDLSLPKQQGELLERSTITSVYQNSVYSVQEEPLNLSCAKKEPQKDSCVTDSEPVVNVIPPSANPINIAIPTVTAQLPTIVAIADQNSVPCLRALAANKQTILIPQVAYTYSTTVSPAVQEPPLKVIQPNGNQDERQDTSSEGVSNVEDQNDSDSTPPKKKMRKTENGMYACDLCDKIFQKSSSLLRHKYEHTGKRPHECGICKKAFKHKHHLIEHMRLHSGEKPYQCDKCGKRFSHSGSYSQHMNHRYSYCKREAEERDSTEQEEAGPEILSNEHVGARASPSQGDSDERESLTREEDEDSEKEEEEEDKEMEELQEEKECEKPQGDEEEEEEEEEVEEEEVEEAENEGEEAKTEGLMKDDRAESQASSLGQKVGESSEQVSEEKTNEA
On to B1, for which the localisation_or_trafficking result in data set [1] was “decreases”.

B2: ZEB1: sh-OGT (protein)
parent chain: MKVTNYNTVVETNSDSDDEDKLHIVEEESVTDAADCEGVPEDDLPTDQTVLPGRSSEREGNAKNCWEDDTGKEGQEILGPEAQADEAGCTVKDDECESDAENEQNHDPNVEEFLQQQDTAVIFPEAPEEDQRQGTPEASGHDENGTPDAFSQLLTCPYCDRGYKRFTSLKEHIKYRHEKNEDNFSCSLCSYTFAYRTQLERHMTSHKSGRDQRHVTQSGCNRKFKCTECGKAFKYKHHLKEHLRIHSGEKPYECPNCKKRFSHSGSYSSHISSKKCISLIPVNGRPRTGLKTSQCSSPSLSASPGSPTRPQIRQKIENKPLQEQLSVNQIKTEPVDYEFKPIVVASGINCSTPLQNGVFTGGGPLQATSSPQGMVQAVVLPTVGLVSPISINLSDIQNVLKVAVDGNVIRQVLENNQANLASKEQETINASPIQQGGHSVISAISLPLVDQDGTTKIIINYSLEQPSQLQVVPQNLKKENPVATNSCKSEKLPEDLTVKSEKDKSFEGGVNDSTCLLCDDCPGDINALPELKHYDLKQPTQPPPLPAAEAEKPESSVSSATGDGNLSPSQPPLKNLLSLLKAYYALNAQPSAEELSKIADSVNLPLDVVKKWFEKMQAGQISVQSSEPSSPEPGKVNIPAKNNDQPQSANANEPQDSTVNLQSPLKMTNSPVLPVGSTTNGSRSSTPSPSPLNLSSSRNTQGYLYTAEGAQEEPQVEPLDLSLPKQQGELLERSTITSVYQNSVYSVQEEPLNLSCAKKEPQKDSCVTDSEPVVNVIPPSANPINIAIPTVTAQLPTIVAIADQNSVPCLRALAANKQTILIPQVAYTYSTTVSPAVQEPPLKVIQPNGNQDERQDTSSEGVSNVEDQNDSDSTPPKKKMRKTENGMYACDLCDKIFQKSSSLLRHKYEHTGKRPHECGICKKAFKHKHHLIEHMRLHSGEKPYQCDKCGKRFSHSGSYSQHMNHRYSYCKREAEERDSTEQEEAGPEILSNEHVGARASPSQGDSDERESLTREEDEDSEKEEEEEDKEMEELQEEKECEKPQGDEEEEEEEEEVEEEEVEEAENEGEEAKTEGLMKDDRAESQASSLGQKVGESSEQVSEEKTNEA
In the case of B2, the expression_or_secretion entry in data set [2] is “decreases”.

B3: ZEB1: BADGP (protein)
parent chain: MKVTNYNTVVETNSDSDDEDKLHIVEEESVTDAADCEGVPEDDLPTDQTVLPGRSSEREGNAKNCWEDDTGKEGQEILGPEAQADEAGCTVKDDECESDAENEQNHDPNVEEFLQQQDTAVIFPEAPEEDQRQGTPEASGHDENGTPDAFSQLLTCPYCDRGYKRFTSLKEHIKYRHEKNEDNFSCSLCSYTFAYRTQLERHMTSHKSGRDQRHVTQSGCNRKFKCTECGKAFKYKHHLKEHLRIHSGEKPYECPNCKKRFSHSGSYSSHISSKKCISLIPVNGRPRTGLKTSQCSSPSLSASPGSPTRPQIRQKIENKPLQEQLSVNQIKTEPVDYEFKPIVVASGINCSTPLQNGVFTGGGPLQATSSPQGMVQAVVLPTVGLVSPISINLSDIQNVLKVAVDGNVIRQVLENNQANLASKEQETINASPIQQGGHSVISAISLPLVDQDGTTKIIINYSLEQPSQLQVVPQNLKKENPVATNSCKSEKLPEDLTVKSEKDKSFEGGVNDSTCLLCDDCPGDINALPELKHYDLKQPTQPPPLPAAEAEKPESSVSSATGDGNLSPSQPPLKNLLSLLKAYYALNAQPSAEELSKIADSVNLPLDVVKKWFEKMQAGQISVQSSEPSSPEPGKVNIPAKNNDQPQSANANEPQDSTVNLQSPLKMTNSPVLPVGSTTNGSRSSTPSPSPLNLSSSRNTQGYLYTAEGAQEEPQVEPLDLSLPKQQGELLERSTITSVYQNSVYSVQEEPLNLSCAKKEPQKDSCVTDSEPVVNVIPPSANPINIAIPTVTAQLPTIVAIADQNSVPCLRALAANKQTILIPQVAYTYSTTVSPAVQEPPLKVIQPNGNQDERQDTSSEGVSNVEDQNDSDSTPPKKKMRKTENGMYACDLCDKIFQKSSSLLRHKYEHTGKRPHECGICKKAFKHKHHLIEHMRLHSGEKPYQCDKCGKRFSHSGSYSQHMNHRYSYCKREAEERDSTEQEEAGPEILSNEHVGARASPSQGDSDERESLTREEDEDSEKEEEEEDKEMEELQEEKECEKPQGDEEEEEEEEEVEEEEVEEAENEGEEAKTEGLMKDDRAESQASSLGQKVGESSEQVSEEKTNEA
For the protein B3, in “western blot”, the expression_or_secretion result was “decreases”. Also, the degradation_or_half_life entry in data set [3] was “decreases”.
